Drawing on PMC3505484, this text covers input giving the 50% level of inhibition of the cytolytic activity of 1 ng/ml (0.06 nM) IL-1β to A375.S2 cells (MTT, 72 h); the pair blocked is IL-1β and the IL-1 receptor and input giving the 100% level of inhibition of the cytolytic activity of 1 ng/ml (0.06 nM) IL-1β to A375.S2 cells (MTT, 72 h); the pair blocked is IL-1β and the IL-1 receptor for one substance.

The test deals with IL-1 receptor on human melanoma A375.S2 cells (human (endogenous in A375.S2)) (UniProt P14778).
Sequence of UniProt P14778 (P14778 18-569): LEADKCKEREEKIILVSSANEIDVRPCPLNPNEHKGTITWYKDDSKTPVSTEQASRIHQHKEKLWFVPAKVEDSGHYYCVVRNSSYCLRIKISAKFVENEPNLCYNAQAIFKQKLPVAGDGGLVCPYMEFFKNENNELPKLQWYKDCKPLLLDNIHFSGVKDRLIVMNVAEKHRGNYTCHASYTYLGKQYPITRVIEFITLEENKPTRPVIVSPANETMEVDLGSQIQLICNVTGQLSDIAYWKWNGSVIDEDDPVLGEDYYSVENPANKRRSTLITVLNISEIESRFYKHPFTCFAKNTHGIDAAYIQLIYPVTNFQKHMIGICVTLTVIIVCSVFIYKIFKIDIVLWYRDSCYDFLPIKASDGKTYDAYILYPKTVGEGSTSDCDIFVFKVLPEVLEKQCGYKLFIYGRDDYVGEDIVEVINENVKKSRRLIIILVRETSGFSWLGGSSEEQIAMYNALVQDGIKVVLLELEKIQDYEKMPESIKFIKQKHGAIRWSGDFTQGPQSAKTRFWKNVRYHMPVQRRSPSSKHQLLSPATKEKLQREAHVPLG

Substance “IL-1ra-HSA fusion protein (human serum albumin fused to the carboxyl terminal of human IL-1ra) (from UniProt P02768 25-609)” yielded an input giving the 50% level of inhibition of the cytolytic activity of 1 ng/ml (0.06 nM) IL-1β to A375.S2 cells (MTT, 72 h); the pair blocked is IL-1β and the IL-1 receptor of 2 nM; an input giving the 100% level of inhibition of the cytolytic activity of 1 ng/ml (0.06 nM) IL-1β to A375.S2 cells (MTT, 72 h); the pair blocked is IL-1β and the IL-1 receptor of 32 nM.
